Test results reported in the supplement of paper PMC9170038.

Each sequence was assayed on MS2 coat protein (assay: apparent KD of MS2 coat protein, switch OFF state (with FMN for OFF switches, without FMN for ON switches); designed switch direction (-1 OFF switch, 1 ON switch): 1; higher = weaker reporter binding). Conditions: FMN input: 0 or 200 uM; Eterna round: R93 (includes R88 designs).
In short: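 Designed RNA switches were made by on-chip transcription from Illumina sequencing clusters and then titrated with SNAP-549-labelled MS2 coat protein. Twofold steps ran from 0.7 or 1.5 nM to 3 µM, each lasting 0.8–1.5 h early and 10–20 min late, in 100 mM Tris-HCl pH 7.5, 80 mM KCl, 4 mM MgCl2, without or with constant ligand. Apparent KD is the per-design median of normalised cluster binding-curve fits.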

Row | Sequence | apparent KD of MS2 coat protein [nM]
1 | GAAAAACAUGAGGAUCACCCAUGUGGAAAUAUGGGAGGAUAUACUAUGACGAAAGUCAAAGUAGAAGGCCUGAUAG [JL S1 M-MoE mod 5 In the Read] | 124
2 | AGGAAACAUGAGGAUCACCCAUGUAAAAAUAUGGGAGGAUAUGGAAACACGAAAGUGAAACCAGAAGGCCCGAAAA [77%, Mat - Mod of Eli, 18] | 23.9
3 | AAGAAAGAAACGCAGGAUAUGCAAAACAAAACAUGAGGAUCACCCAUGUCAAACAAACAAACAAAGCAGAAGGGCGAAAGAAAGAA [Same State 2 AA] | 21.3
4 | AAUACACAUGGUCAGGAUAUCGCAGCUAGGACAUGAGGAUCACCCAUGUAGCAUGUAACUGAAACCGAGAAGGGACAGGGUGAUC [JR_SS002_Sub412] | 85.1
5 | AACAAUCUAUCUGAGGAUAUAUGUCGAAAGACAUGAGGAUCACCCAUGUGAAAACAUGAAAAAUCAUAGAAGGCAGAUAGAUUGA [SS2: 1138] | 393
6 | ACAAGGCUACACUAGGAUAUGGGUGUCUAAACAUGAGGAUCACCCAUGUGAUGGCAAAACAAAGCUCAGAAGGAGUCGUAGCCCA [Anvemais] | 27.4
7 | AAAAAACAUGAGGAUCACCCAUGUGCAAAAUUCGCAGGAUAUCCCUUUUUUAAAUGGGAGGGAGAAGGGUGAAAAA [Nob's Hobby 17 - Jieux - Same State 1] | 76
8 | AAAAAACAUGAGGAUCACCCAUGUGCAAAAUUCGCAGGAUAUUCCUCAAUUAAAUGAAAGGAAGAAGGGUGAUAAA [Nob's Hobby 31 - Jieux - Same State 1] | 429
9 | AUAUAUAUAAGGUAGGAUAUGCUAAAGUAAACAUGAGGAUCACCCAUGUAAAGAAAGAAACUCAUGUAGAAGGGCCAUAUAUAUA [viburnum 6] | 408
10 | UAAAAACAUGAGGAUCACCCAUGUGAGAACAUGGGAGGAUAUACGAAGACGAAAGUCAAAGUAGAAGGCCUAAAAU [Mat - Same State 1 - Mod - D171] | 15.6
11 | AAAAAAAAAACUCAGGAUAUAGAUAAUUGAACAUGAGGAUCACCCAUGUAGUGAAAAAAAAAAAAUUAGAAGGGAGGAAAAAAAAA [SameState2-01] | 45.4
12 | AGGAAACAUGAGGAUCACCCAUGUAGAAAUAUGGGAGGAUAUACAAAGACGAAAGUCAAAGUAGAAGGCCUAAAAG [76%, Meechl 1] | 63
13 | UGGAGACAUGAGGAUCACCCAUGUGAGAAGAGGCGAGGAUAUCGAAAGAAAGAAGAGAAACGAGAAGGCGCGAGCU [salish99-SS1-037] | 36.1
14 | UGGAGACAUGAGGAUCACCCAUGUGAGAAGAGGCGAGGAUAUCGAAAAAAAAAAAAAAAACGAGAAGGCGCGAGAC [salish99-SS1-010] | 41.2
15 | AAAAAACAUGAGGAUCACCCAUGUAAACCUCAUGUAGGAUAUACAAAAAAAAAAAAAAAAGUAGAAGGACAAAAAA [Omei A variation 2] | 1970
16 | ACUACACAUGAGGAUCACCCAUGUCAGGUGGGACUAGGAUAUUAUAAACCAGAGUAAAAAUAAGAAGGAGUAGAAA [JR_SS001_Sub308] | 46.6
17 | GAGGACCUAGGAUAGGAUAUGUGAAAAAUUACAUGAGGAUCACCCAUGUCCAUUUAUAUGGGAACAUAGAAGGGUUCUGGUUAUC [Mat - Same state - Malcolm Mod - D150] | 61.6
18 | AUGAUACAUGAGGAUCACCCAUGUCACCUCACACGAGGAUAUCUGUGCAGUACUCAGUACGGAGAAGGCGUGGAAA [Same State 1.2d (Same State of Confusion2 - KL)] | 78.1
19 | AGAAAUAAAUCUCAGGAUAUGGGUAAAUAAACAUGAGGAUCACCCAUGUAAAAGAAAAUAAAAAACCAGAAGGGAGAAAAUAAGA [Designing denovo 2] | 39.2
20 | AUUAGACAUGAGGAUCACCCAUGUAGGCAGUCAUGAGGAUAUGGACAAGGUGCUCAAGGUCCAGAAGGCAUACGCC [Maxeus] | 57.6
21 | AAGAAACAUGAGGAUCACCCAUGUAAAAAUAUGGGAGGAUAUACAAGGACGUAAGUCAAGGUAGAAGGCCUAAGAA [Mat - Same State 1 - Meechl mod - D136] | 82.5

Row | Sequence | apparent KD of MS2 coat protein [nM]
22 | AAAAAAAAAAGGCAGGAUAUCCAAAAAAAAACAUGAGGAUCACCCAUGUAAAAAAAAAAAAAAUGGGAGAAGGGCCAAAAAAAAA [Mat - Same State 2 - Rerun Eli mod - D85] | 64.4
23 | CGAAAGGAGAGAGAGGAUAUCCAAAGGAAAACAUGAGGAUCACCCAUGUAGAAGGUAGGAGAUUGGGAGAAGGCUCAAGAAAGAG [salish99-ss2-144] | 27.5
24 | AAAUAAAUGACUAAGGAUAUUUCAGAGAAAACAUGAGGAUCACCCAUGUAAUAAUAAAAAGGGUGAGAGAAGGUAGUCAACAAAC [74%, More Paria 4] | 25.7
25 | AUAAAAGAAGCGAAGGAUAUCCAAAGAACCACAUGAGGAUCACCCAUGUAAAGAAAGAAAAAGUGGGAGAAGGUCGCAAAGAAUA [73%, More Fisker Same State 2, D3, 5] | 53.7
26 | CGCGAACAUGAGGAUCACCCAUGUGAAAAACAUAGAGGAUAUGUCGCAUGCGUGUAAAAGACAGAAGGCUAUCGCG [Normal (21/22)] | 72.5
27 | CAGGACCUAGGAUAGGAUAUAUGAAUAAUUACAUGAGGAUCACCCAUGUCCAUUUAUAUGGGAACAUAGAAGGGUUCUGGUUAUG [Mat - Same state - Malcolm Mod - D134] | 50.3
28 | GGGAGACAUGAGGAUCACCCAUGUGAGAAGAGGCGAGGAUAUCGAAAGAAAGAAGAGAAACGAGAAGGCGCGAGAG [salish99-SS1-057] | 59.8
29 | GACUGCGAUGUGAAGGAUAUCCGCGACUGGACAUGAGGAUCACCCAUGUAUGCUUAGAACAUGCCGGAGAAGGUCACGAAUGAUU [JR_SS002_Sub1217] | 32.3
30 | AAAUAUAAAAACUAGGAUAUACUAAAAUAAACAUGAGGAUCACCCAUGUAAAAAAAAAAACUCAUGUAGAAGGAGUAAAUAUAAA [ss2 9th] | 13.8
31 | GAGGACCUAGGAUAGGAUAUAUGAAUAAUUACAUGAGGAUCACCCAUGUCCAUUUAUAUGGGAACAUAGAAGGGUUGUGGUUAUC [SameState2 Malc#36] | 178
32 | AAAAAACAUGAGGAUCACCCAUGUGACAACAUGGGAGGAUAUACGAAGACGAGAGUCGAAGUAGAAGGCCUAAAAA [Garnet 76] | 65.2
33 | CGGAGACAUGAGGAUCACCCAUGUGAGAAGAGGCGAGGAUAUCGAAAGAAAGAAGAGAAACGAGAAGGCGCGAGCA [salish99-SS1-068] | 24.4
34 | CUGGACCUAGGAUAGGAUAUGUGAAUAAUUACAUGAGGAUCACCCAUGUCCAUUUAUAUGGGAACAUAGAAGGGUUCUGGUUAAG [Mat - Same state - Malcolm Mod - D146] | 66.1
35 | GAAAAACAUGAGGAUCACCCAUGUGUAAAUAUGGAAGGAUAUACAAAGACGAAAGUCAAAGUAGAAGGUCUAAAAG [Mat - Same State 1 - Eli mod - D16] | 28.9
36 | AGGAAACAUGAGGAUCACCCAUGUAGAAAAAUGGGAGGAUAUACAAAGACGAAAGUCAAAGUAGAAGGCCUAAAAG [76%, Meechl, 6] | 45.8
37 | AAGAAAGUUUACGAGGAUAUGUUCCGCAGAACAUGAGGAUCACCCAUGUGAACACGAAGUGCGACGCAGAAGGCGUGAGCAAUGA [Isenmaqu] | 130
38 | CAUCAACAUGAGGAUCACCCAUGUCAUUGAUGUCAAGGAUAUGGGAGACAUAAAAUUCUUCUAGAAGGUGAAAGAU [Mainuson] | 176
39 | CGCGAACAUGAGGAUCACCCAUGUAAAUCGCAUGUAGGAUAUGGGAAACACAUUAAGAUCCCAGAAGGGCGGAAAA [Anquve] | 31.2
40 | AGGAGACAUGAGGAUCACCCAUGUGCACGUGGACGAGGAUAUGCUAGUAGAAGAUAGAAUGCAGAAGGCGUAAGAA [Mod of JR] | 29.9
41 | AGGAAACAUGAGGAUCACCCAUGUAAAAAAUAUGGAGGAUAUGGAAACACGAAAGUGAAACCAGAAGGCUAAAAAA [77%, Mat - Mod of Eli, 24] | 26.9
42 | AAAGAAAAACUAGAGGAUAUCCAAGUGGUAACAUGAGGAUCACCCAUGUGAAGAAAGGAGCAUGAGGAGAAGGCUAGAAGAAAAA [JL Nando mod 25] | 82.3
